The results in this text go back to patent US20240092930A1 (MABWELL SHANGHAI BIOSCIENCE, published 2024).

Positions count from the first letter of the chain named.

T1: recombinant human Trop-2-his protein (ACCESSION NO.: NP_002344.2, AA 1-274) (human, UniProt P09758 27-274)
T1 construct: range 27-274; also called recombinant human Trop-2 protein; recombinant human Trop-2 extracellular domain; not shown: his tag
T1 sequence (looked up): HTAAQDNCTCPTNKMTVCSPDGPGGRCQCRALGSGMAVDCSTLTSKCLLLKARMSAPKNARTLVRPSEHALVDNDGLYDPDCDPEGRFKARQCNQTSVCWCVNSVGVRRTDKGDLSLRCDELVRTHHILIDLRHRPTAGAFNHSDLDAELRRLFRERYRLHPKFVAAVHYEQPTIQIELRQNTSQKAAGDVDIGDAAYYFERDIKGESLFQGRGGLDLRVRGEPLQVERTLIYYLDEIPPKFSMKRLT

B1: h4-3-2 (antibody, human IgG1, kappa, V domains shown)
VH: EVQLVQSGPEVKKPGASVKVSCKASGFTFTDYVIGWVRQAPGQGLEWIGEIYLGSGTIYYAEKFKGRVTMTADTSTSTAYMELSSLRSEDTAVYYCARGSIFPFDYWGQGTLVTVSS
VL: DIQLTQSPSSLSASVGDRVTITCSASSSVSYMYWYQQKPGKAPKLLIYDTSTLASGVPSRFSGSGSGTDFTLTISSLQPEDFATYYCQQWSSYPYTFGQGTKLEIKR
B2: h4-3-3 (antibody, human IgG1, kappa, V domains shown)
VH: B1 VH with A61T, E62Q
VL: B1 VL
B3: h4-3-8 (antibody, human IgG1, kappa, V domains shown)
VH: B1 VH with A61T, P103Y
VL: B1 VL with S24R
B4: h4-3-9 (antibody, human IgG1, kappa, V domains shown)
VH: B1 VH with A61T
VL: B1 VL with T50A
B5: h4-3-7 (antibody, human IgG1, kappa, V domains shown)
VH: B1 VH with A61T, E62Q
VL: B1 VL with S24R
B6: h4-3-4 (antibody, human IgG1, kappa, V domains shown)
VH: B1 VH with A61T, P103Y
VL: B1 VL
B7: h4-3-6 (antibody, human IgG1, kappa, V domains shown)
VH: B1 VH
VL: B1 VL with S24R
B8: h4-3-5 (antibody, human IgG1, kappa, V domains shown)
VH: B1 VH with A61T
VL: B1 VL with S24R
B9: h23-12-20 (antibody, human IgG1, kappa, V domains shown)
VH: QVQLVQSGAEVKKPGASVKVSCKASGYTFTSYWMHWVRQAPGQGLEWMGEITPSDNYTSYNQKFKGRVTITRDTSTSTAYMELSSLRSEDTAVYYCARGEGNYVSFDYWGQGTLVTVSS
VL: DIQMTQSPSSLSASVGDRVTITCRASQDISNYLNWYQQKPGKAPKLLIYYTSSLHSGVPSRFSGSGSGTDFTLTISSLQPEDFATYFCQQGYTLPPYTFGQGTKLEIKR
B10: h23-12-37 (antibody, human IgG1, kappa, V domains shown)
VH: B9 VH with S54G, E100H
VL: B9 VL with S53R, G91Y
B11: h23-12-32 (antibody, human IgG1, kappa, V domains shown)
VH: B9 VH with T58G, E100H
VL: B9 VL with S53R, H55Q
B12: h23-12-40 (antibody, human IgG1, kappa, V domains shown)
VH: B9 VH with N61A, E100H
VL: B9 VL with S53R, G91Y
B13: h23-12-44 (antibody, human IgG1, kappa, V domains shown)
VH: B9 VH with S54G, E100H
VL: B9 VL with S53R, T93S
B14: h23-12-33 (antibody, human IgG1, kappa, V domains shown)
VH: B9 VH with N61A, E100H
VL: B9 VL with S53R, H55Q
B15: h23-12-48 (antibody, human IgG1, kappa, V domains shown)
VH: B9 VH
VL: B9 VL with S53R, T93S
B16: h23-12-49 (antibody, human IgG1, kappa, V domains shown)
VH: B9 VH with E100Q
VL: B9 VL with S53R, T93S
B17: h23-12-36 (antibody, human IgG1, kappa, V domains shown)
VH: B9 VH with E100H
VL: B9 VL with S53R, G91Y
B18: h23-12-22 (antibody, human IgG1, kappa, V domains shown)
VH: B9 VH with E100H
VL: B9 VL with S53R, H55E
B19: h23-12-30 (antibody, human IgG1, kappa, V domains shown)
VH: B9 VH with S54G, E100H
VL: B9 VL with S53R, H55Q
B20: h23-12-35 (antibody, human IgG1, kappa, V domains shown)
VH: B9 VH with E100Q
VL: B9 VL with S53R, H55Q
B21: h23-12-24 (antibody, human IgG1, kappa, V domains shown)
VH: B9 VH with N56G, E100H
VL: B9 VL with S53R, H55E
B22: h23-12-46 (antibody, human IgG1, kappa, V domains shown)
VH: B9 VH with T58G, E100H
VL: B9 VL with S53R, T93S
B23: h23-12-47 (antibody, human IgG1, kappa, V domains shown)
VH: B9 VH with N61A, E100H
VL: B9 VL with S53R, T93S
B24: h23-12-41 (antibody, human IgG1, kappa, V domains shown)
VH: B9 VH
VL: B9 VL with S53R, G91Y
B25: h23-12-21 (antibody, human IgG1, kappa, V domains shown)
VH: B9 VH with E100Q
VL: B9 VL
B26: h23-12-43 (antibody, human IgG1, kappa, V domains shown)
VH: B9 VH with E100H
VL: B9 VL with S53R, T93S
B27: h23-12-26 (antibody, human IgG1, kappa, V domains shown)
VH: B9 VH with N61A, E100H
VL: B9 VL with S53R, H55E
B28: h23-12-28 (antibody, human IgG1, kappa, V domains shown)
VH: B9 VH with E100Q
VL: B9 VL with S53R, H55E
B29: h23-12-27 (antibody, human IgG1, kappa, V domains shown)
VH: B9 VH
VL: B9 VL with S53R, H55E
B30: h23-12-34 (antibody, human IgG1, kappa, V domains shown)
VH: B9 VH
VL: B9 VL with S53R, H55Q
B31: h23-12-42 (antibody, human IgG1, kappa, V domains shown)
VH: B9 VH with E100Q
VL: B9 VL with S53R, G91Y
B32: h23-12-39 (antibody, human IgG1, kappa, V domains shown)
VH: B9 VH with T58G, E100H
VL: B9 VL with S53R, G91Y
B33: h23-12-29 (antibody, human IgG1, kappa, V domains shown)
VH: B9 VH with E100H
VL: B9 VL with S53R, H55Q
B34: h23-12-23 (antibody, human IgG1, kappa, V domains shown)
VH: B9 VH with S54G, E100H
VL: B9 VL with S53R, H55E
B35: h23-12-45 (antibody, human IgG1, kappa, V domains shown)
VH: B9 VH with N56G, E100H
VL: B9 VL with S53R, T93S
B36: h23-12-38 (antibody, human IgG1, kappa, V domains shown)
VH: B9 VH with N56G, E100H
VL: B9 VL with S53R, G91Y
B37: h23-12-31 (antibody, human IgG1, kappa, V domains shown)
VH: B9 VH with N56G, E100H
VL: B9 VL with S53R, H55Q

The Kd is the constant that tells how readily two partners part at equilibrium.

The target in one experiment is T1, recombinant human Trop-2-his protein …. Nature of the experiment: BLI, antibody on AHC sensor, Trop-2-his 60 nM. On the procedure:
(§1) 5-6 days after cell transfection, culture supernatants were purified through ProA affinity chromatography column to obtain different humanized antibodies. Affinities of the obtained antibodies were determined by an assay including capturing Fc fragments of the antibodies with anti-human IgG Fc capture (AHC) biosensors using Octet QKe system instrument from Fortebio. For the assay, each of the humanized antibodies and control antibody Sacituzumab was diluted to 4 μg/ml in PBS, and was allowed to flow through the surface of an AHC biosensor (Cat.: 18-0015, PALL) for 120 s. Recombinant human Trop-2-his protein (ACCESSION NO.: NP_002344.2, AA 1-274) was used as a mobile phase, and its concentration was 60 nM. The binding time was 100 s and the dissociation time was 300 s. When the assay was finished, data from which the response values of blank control had been deducted were fitted to a 1:1 Langmuir binding model using software, and then kinetic constants for antigen-antibody binding were calculated.
Affinities of the antibodies obtained from the combinations of mutants of murine antibody 23-12, chimeric antibody ch4-3 and control antibody Sacituzumab to recombinant human Trop-2-his protein were determined by ForteBio (Table 8).
Take B1: the dissociation constant (Kd) is 0.411 nM.
The same measure, in the same setting: the same measure for B2: 0.501 nM; for B3: 0.862 nM.
Same read-out and setting: in the case of B4 it was 0.317 nM; in that of B5, 0.466 nM.
For B6, the equilibrium dissociation constant (Kd) is 0.636 nM.
Regarding B7, the equilibrium dissociation constant (Kd) amounted to 0.397 nM.
Turning to B8, the Kd stood at 0.273 nM.

For the next experiment the target is unchanged. Nature of the experiment: BLI, antibody on AHC sensor, Trop-2-his 60 nM. This is another data set of the same source. On the procedure:
as §1
Affinities of the antibodies obtained from the combinations of mutants of murine antibody 23-12, chimeric antibody ch23-12 and control antibody Sacituzumab to recombinant human Trop-2-his protein were determined by ForteBijo (Table 5).
Consider B9, for which the Kd came to 1.46 nM.
B10: the dissociation constant (Kd) worked out at 0.893 nM.
Same read-out and setting: the same measure for B11: 0.601 nM; for B12: 2.16 nM.
Same read-out and setting: the same measure for B13: 0.717 nM; for B14: 8.91 nM.
In the case of B15, the Kd was 0.405 nM.
Still for that read-out and setting: the same measure for B16: 2.99 nM; for B17: 8.81 nM; for B18: 1.3 nM.
Same read-out and setting: in the case of B19 it was 9.76 nM; in that of B20, 9.77 nM.
On the same count and under the same terms, in the case of B21 it was 5.21 nM; in that of B22, 0.312 nM.
Regarding B23, the Kd is 2.31 nM.
On the same count and under the same terms, in the case of B24 it was 0.782 nM; in that of B25, 22.8 nM; in that of B26, 0.98 nM.
For the molecule B27, the Kd is 5.43 nM.
Same read-out and setting: the same measure for B28: 4.13 nM.
Same read-out and setting: the same measure for B29: 0.496 nM; for B30: 5.57 nM; for B31: 3.09 nM.
In the case of B32, the Kd amounted to 0.492 nM.
Turning to B33, the Kd was 6.72 nM.
Consider B34, for which the equilibrium dissociation constant (Kd) came out at 0.77 nM.
For the molecule B35, the equilibrium dissociation constant (Kd) is 4.09 nM.
On the same count and under the same terms, in the case of B36 it was 7.86 nM; in that of B37, 63.9 nM.
